Usually stoichiometry N stands for a count of units in the complex or per binding partner. What is called kcat is the number of substrate molecules converted per active site and unit of time at saturation.

“And” between values parts separate entries of the source, which are not always exact repeats. Equal values may be shown once.

Data set [1] deals with the molecule itself. As to the kind of experiment: SEC; size-exclusion chromatography of purified recombinant PFK isoforms, buffer and protein concentration not told in the main text (Supplementary Figure S2); tetramer to dimers. A general note: In gel filtration, larger molecules generally elute earlier.
Substrate in data set [2]: O=C(CO)[C@@H](O)[C@H](O)[C@H](O)COP(=O)(O)O
As to the kind of experiment: ALDO-TIM-G3PDH enzyme-linked kinetic assay, PFK-P. The settings on record: other: PFK-P; F6P titration, ATP 0.5 mM; n = 6; mean (SD); pH 7.4; 25.0 °C. Type of data set: biochemical, human. Here is the method:
Recombinant human PFKs were expressed in PFK-deficient Saccharomyces cerevisiae and purified using the methods described previously, adapting earlier materials and protocols. Production of PFK intended for use in ATP titration experiments used 1 mM F6P as a tetramer stabilising agent in protein purification and storage buffers. Production of PFK intended for use in F6P titration experiments used 1 mM ATP as a tetramer stabilising agent in protein purification and storage buffers. Experimental details on the purification and characterisation procedures including figures showing SDS–PAGE gels of the highly pure PFKs used in the kinetic experiments described in this work have been recently published.
Assay buffer consisted of 50 mM TEA, 100 mM KCl, 10 mM MgCl2, 1 mM Tris(2-carboxyethyl)phosphine hydrochloride (TCEP), 10% glycerol, pH 7.4. Assay mix consisted of 5 units/ml glycerol-3-phosphate dehydrogenase (G3PDH, Sigma–Aldrich G6880), 2.5 units/ml aldolase (Sigma–Aldrich A2714), 25 units/ml triosephosphate isomerase (TIM, Sigma–Aldrich T6258), and 1.25 mM NADH. […] A SpectraMax M5 Multi-Mode Microplate Reader was used to measure A340nm at 13 s intervals for 10 min. […]
Time-dependent absorbance change was converted into rate of NADH oxidation (µM s^−1) or specific activity (µmol min^−1 mg protein^−1) using the Beer-Lambert law (molar extinction coefficient of NADH 6.22 mM^−1 cm^−1). […]

B1: human 6-phosphofructokinase-1-kinase, platelet isoform (PFK-P) (enzyme, UniProt Q01813 1-784, looked up)
chain: MDADDSRAPKGSLRKFLEHLSGAGKAIGVLTSGGDAQGMNAAVRAVVRMGIYVGAKVYFIYEGYQGMVDGGSNIAEADWESVSSILQVGGTIIGSARCQAFRTREGRLKAACNLLQRGITNLCVIGGDGSLTGANLFRKEWSGLLEELARNGQIDKEAVQKYAYLNVVGMVGSIDNDFCGTDMTIGTDSALHRIIEVVDAIMTTAQSHQRTFVLEVMGRHCGYLALVSALACGADWVFLPESPPEEGWEEQMCVKLSENRARKKRLNIIIVAEGAIDTQNKPITSEKIKELVVTQLGYDTRVTILGHVQRGGTPSAFDRILASRMGVEAVIALLEATPDTPACVVSLNGNHAVRLPLMECVQMTQDVQKAMDERRFQDAVRLRGRSFAGNLNTYKRLAIKLPDDQIPKTNCNVAVINVGAPAAGMNAAVRSAVRVGIADGHRMLAIYDGFDGFAKGQIKEIGWTDVGGWTGQGGSILGTKRVLPGKYLEEIATQMRTHSINALLIIGGFEAYLGLLELSAAREKHEEFCVPMVMVPATVSNNVPGSDFSIGADTALNTITDTCDRIKQSASGTKRRVFIIETMGGYCGYLANMGGLAAGADAAYIFEEPFDIRDLQSNVEHLTEKMKTTIQRGLVLRNESCSENYTTDFIYQLYSEEGKGVFDCRKNVLGHMQQGGAPSPFDRNFGTKISARAMEWITAKLKEARGRGKKFTTDDSICVLGISKRNVIFQPVAELKKQTDFEHRIPKEQWWLKLRPLMKILAKYKASYDVSDSGQLEHVQPWSV
notes: human phosphofructokinase, platelet isoform (PFK-P), recombinant; Active form is a tetramer in equilibrium with dimers
In the case of B1, the “stoichiometry N” value in data set [1] is 4 and 2. The kcat in data set [2] was determined as 1.83 s⁻¹.

(Values after paper PMC7702303, “Biochemical and transcript level differences between the three human phosphofructokinases show optimisation of each isoform for specific metabolic niches” (Biochemical Journal, 2020).)
